Results: PMC9249324

What was measured:
Test in all cases: MST
[1] = target: MBP-Mpp83Aa1 modified with ABP5 at AA70-76 (Bacillus thuringiensis)
[2] = target: MBP-Mpp83Aa1 modified with ABP5 at AA172-178 (Bacillus thuringiensis)
[3] = target: MBP-Mpp83Aa1 modified with ABP5 at AA224-230 (Bacillus thuringiensis)
[4] = target: MBP-Mpp83Aa1 (native) (Bacillus thuringiensis)

Recombinant N. viridula aminopeptidase N (enzyme)
Kd [1]: 123 nM | Kd [2]: 4.98 nM | Kd [3]: 187 nM | Kd [4]: 139 nM
